Assay: soluble fraction after stress (log2 fold change); higher = more stays soluble; pooled small domains, quantitative proteomics
Conditions: stress: 75 degC
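Note: 20 min heating vs room temperature control held 20 min.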

Sequence | soluble fraction (log2)
HMLSLGQQIRNHVLSRIESGEWPEGSRIPSEAKLVELLGASRMTIHIALRDLSAEGVLLRKQGAGTFVAPR | -2.68
HMLSRKEVFTVSQKDIEKNPIGAADKFFDGHVGIHKLLVVDEEDRLRGLFTLSDIERINDEQ | 0.179
HMLSRTYDSSGPDVKIRGTAQTVADKYMSLARDAQSSGDRVMAENYLQHAEHYNRIIAAAQAQ | 0.34
HMLSSEQQQKLDSLSRKELEVAELVSHGATNKMIARTMNITERTVKAHLTAIFQKMNIPDRLSLAIFFRDL | -2.79
HMLSSNEIKEIFALFDKSNRGQVATSELGTLVRALNLNPTETEITDMQSKVDPKGQGSFTLDVLEKVVQD | 0.394
HMLSVNREQVEQSLKQEWGFDYDKNLRAAQRAIDVYGDDDLKLLLNGPTGNDPAIVKLFARLGGEVTEE | 0.132
HMLSYIELTVDNTSKASYIMTDKMKINNFKIIGNNTIRVYENKVSPQDISRTLSMNNVSIEALGRKS | -1.29
HMLSYNINEESKSSIMNVNVLKNNFASIDVEKLQNIIFTTFKKYNYYLNDFSSMNLLLHLLIIVDREL | 0.418
HMLTEKEEEVMQILWDNGPLFVREILEFYPDPKPHYNTVSTVIRVLEEKNFASHKAYGNTYQYFP | 0.315
HMLTLEDMTRINSIISPRIKKGQSLYHIAKNNGDELNISESTLRRLVMTGEMDAGIIDLPQAVK | -0.00636
HMLTLTNREKQVLVYIAKGHQVAQIAYELKLSGHTINGYIKTIYQKLHISSRAEAALLAQQYGL | -3.31
HMLTRQNFHGIKLPTIHEYIDLLNSRVNANIDKTNNWQSSVSHLRTYLNSHNINAVSKESINNYIDERLN | -1.4
HMLTRRQSEVLDFIRQFAESESMPPTLHEIAKGMGFSSDNAARDHVRALARKGAIDLVGGTSRGIRLR | -1.22
HMLTRSASREELDQLLKRLRQNLKQKNFFWPPDKEKSLVLYLENLFSKFPLNSSDIRFLHGIIRTLSEK | -0.188
HMLVGKSVIMKTNESSSGMIAGKVNYWENIDGKIYLGINGKLYDIADVDTVLDNDYYDKLVN | -0.516
HMLVKKYTEEETGRQAELSKQLAELSKAYYNTGNSMVDDAVFDKLRDELSSLEKESGFAYDISPNVS | -0.69
HMLVNNSTIETVIDFANVKFGMELTKDQVSEQLRNLSFSQTLKLINSMKADDNDAFSEIIDL | -0.593
HMLVSFGDHLKRYIYERAGIEEPFGEVPQEIYRDIAVDSFRETYTPKSMNPTSTKLPALVNNWLIQ | -0.843
HMLVSVSNYLGQNVDTVKSDLEALGLVVKLKEQQTDRESENGAVLEQSIEGGSKVSAGTPITLTYGK | 0.945
HMLWTHIALPVRSLDDTMAFYDKYTTLENIHERQDPETNMRSVWLANPGDKTEQAARFVLVLI | -0.119
HMMTDAEKTFIFFSHLSSVEDHIAYGDKQFYMSLFWQHENKRELSSSQLYHLERLYNKYSMEEIEKKEEFS | -1.35
HMMTDEEFLRIAGYMKQRYGIDLGQKKVIMNGRLENHIKSGGWSSFHAFMNDLEKDSSGKLEKELVNLLTT | -0.239
HMMTLEESYKLLQVSHNASDIEITKAFKKLALLYHPDKNPSNIDWANKAMASINVAYNTIITHRFKEK | -1.38
HMNAAYDEELDFIFSLSEKGKWEEAEAEIGLLLQKHPEDATLQRIGEWVTTQKILLRQQAVEDRIRS | -0.375
HMNAEWMFDARKIPGLVMNYLRRIAVRAIEEKHYSPELVADLFGIDRTSIYDWLRKYRQQGEEALDTRKA | -1.28
HMNAFEIYPNPASNLIRIDAEFTVAKIFSQTGNLIQTSTTKEIDVYNLANGIYFVKLDDSPSMVKFVIN | -0.795

Sequence | soluble fraction (log2)
HMNALTEAESKLLERMNKAGIHAEITTKKAAGILQRSENGARTVLNSLVKKGYLTVETNKAPYIYHLH | -0.359
HMNAMFEKVLAAVMGFIGVSAFAKNADGKSEMTSDQEKRLTDKWGSKFVEEFKNDLLEYEKNGNAAEDAV | -0.944
HMNAPKKPLSAYFLFSQEERLKVKAENPDYSITEVAKELGKRWATLNPDIKTVYEQRYQDARRIYETEMNT | -0.372
HMNAQLTTIPDLDGMNMRAATAMLSSLGLEVKRIGSGTVFAQFPKAGAAMRPGSMVTIRGKAKSL | -0.777
HMNATLSSSYPTSVVTDGEIYKLTFGLNGKYNGQEQITVKPHGDSNIYDSGGLRAYQNTQSNNVVTLN | -0.0686
HMNATQLSNTQKQIRTQLLERLSNNPLTVKQLADRMFVPIDTILKEITALIQEQKIIEDKGGKLQIN | -0.135
HMNAVDLLSPQEQRIFELIGEGMSNRQIADVMYLAEKTVKNYVSNVLMKLGMERRTEAAALAARLDERQK | -0.179
HMNAVITTQKAKQIALAHAGLSEADVNYVKAELENDDGVQVYDIEFYSKNIEYDYDINAVTGEIMSFDHDI | -0.251
HMNAVYPNPFVSEIYIGENNRSVEIYNLNGGLVYGMSQPSSRIDVSGLAAGSYILIKKDSSGHISSHKIMK | -1.63
HMNDAARQTTDILQHVRSSGSISFRDLWRLFMPFMAYRDFDAAVKSLVAAGHIATTENERKELHLIAF | -1.14
HMNDEFYAVVRESYAGYALVKPLDEDVGYDILSVSVKNLKVGDIIRLKVKNIKEIYPPEAEVLEVEVLQ | -0.316
HMNDEQFAIAKNDLLLSLYDGKEVNNSAAEYIIAWESLEKSPSDYISSQLKNTAESIIKISFD | 0.258
HMNDFVTVPDLQGIFYSEAIKKIDKMGLKEGSIQFVNQDKFLPNTVLNQNPKEGTKVSQDSPINLIIS | -0.012
HMNDILETISNQIRDLRVSKKITQQELAERTNLSVPYISQIENGHRNISLETFIKIVDALDIPLSDFFLP | -1.95
HMNDITVNVEDSKLIVTSNNPEKLPLYIMDIQGHILDKSEITAGTYSFPISDRGTYIVRIGENVYKVI | -0.166
HMNDLKVGELAKRGNVTAETVRHYTREGLLSPTRHPDNGYQLFSATDLERLHFIQRARKLGFSVAEIRDIL | -0.915
HMNDLVTWDRYKIELGDTLSEIAQKLVTRVDILKTVNQIQGTRIIAGNSLMVPRTTDTNVLTYL | 0.00348
HMNDPIGDMLTRIRNAQMRGKSTVSTPASKLRAWVLEVLASEGYIRGFERATTDNGQGELVISLD | -0.682
HMNDREAAYEDLPDELVRVGQKVFIKSLETEGVIVQPPNKKGEVRVRSGNISTNVKRSDLGLPIEKP | 0.0745
HMNDRRQDVFELLKSSERPVSAADLAHKFGVTRQVIVADIALLRASDIDIVSTNRGYILKANL | -1.83
HMNDYNLTDREKEVLTFLFQGLEYKEIGMKMSVSPNTIRNHISNIYKKLHVTSKTQAIRVFLNN | -4.09
HMNEAMIMIDLKGKSRDEAVKELDELNLKYRFTGNGIVKDQKPKAGEEINSDTVVEVELSEIK | 0.12
HMNEDYFTIAGYASLRGVNIDTSKANMLGRKATKLSREYGYDIGKVTDTRFGKVNSYHLDILKSIFEF | -0.575
HMNEFSYLSELGSEKGDLIKGLQLVQSREGYVSDDAIRAISKHFSIAEAEVEGVLTFYAQFK | -1.28
HMNEIESFSNTKNPFSLTFKTSKDSSYKVEASSNLKKWTTLSQIKGTGNPITFTESRRILFRKQYYRVTLS | -0.176
HMNEISFYPNPAKESLTVKGLSEITSYSISDINGKLIQYGTTFDRINLEKLTKGFYFLTIGNTISKKLIV | -0.311

Sequence | soluble fraction (log2)
HMNEISLKEITIEEDHPWRDKKIKELDLKEHILVAMIRRKDQDIIPNGETKIYKDDILVIYD | 0.00328
HMNEKFNVYPIPVYNNLNITGLSKPVTYLISSIDGKTIKNGVFQESIDVSDLKSGLYFLQVETKDPVKFIK | -0.991
HMNEKLNEYLNQVKAYLNTSDNKEDIIKELEAVVLEKAEKKYGQITDESISKILSEFGSPAEVAKEYS | 0.218
HMNEKLRNYIDTLFEHAPTTVRAVELKEEMFQNLTDKYNDLIAQGKSEEAAFNIAVASIGDVDSLIAGLS | 0.179
HMNELGSLIKRKREELGLSQEELARILGYKHKSSINKIELGLADVPRTKVPAFAKALGMTPVEFS | -0.12
HMNELPSVIIMKNGRTRPYELQEISKDEEWLNQTIREHGIEPKDIFIAEFWDGRTAFILNDGRIVK | -0.428
HMNERIKSLRKALGLTQQEFADKLGISRGNIGAYEVGKNAPSDAVISLIVRIFNTNENWLRTGEGEM | -0.776
HMNETSRTRALNILGLKATATQEDIKKAYRSLAKEYHPDKLVGVSEGVKKISEEKFREINEAYEYLI | 0.557
HMNEVIIKNWSNAVGRNIKIKTKRGRPIFGRLLAINDQQLTIASKYMRGNATITVAREDVVSMSVS | -3.08
HMNEVRINTAHIEHKYLGEVKVLDIQEMRNARGRDADPLAFLAIRFWSPRGVLVRVKDSRDATPYWLIS | 0.199
HMNEYHRNISDEEFVRDIKETAIKLKKETLTGVEYSQNGKYHASTIIHRFGSWKKALELAELNTK | -0.225
HMNFNYPVIVKNSRINVSGVLSAAKLYTINGQLLQSYKGSGEFTSKTLTKGIYILQVDNARTKVLV | -4.42
HMNFSKEYILVHSYKEIDILDALIVKYEATLVNREFDLFINSYIKINEDYAKLFRDEIISKTSGSMSIKEL | -2.93
HMNFTKHPENPNFVVYRFTDPERANSFRAELIANNISFEEDTEKKKQLIYTLFAIHTKYYNQSMQINIK | -0.843
HMNFTVTDKNAVLYSNDNTKVYESPDINSKLVTTIAKDLPVNVTGITSNGWFRISLEGTYYVPGNGLEQR | -0.139
HMNGADPYEQLGVTRDASDDELKAAHRKLSRENHPDTLMAKGMPPEFIEQANDKMARINAAWDQIRKERGI | 0.323
HMNGAITLRVRPSDEGKRLDVFVVSQLTGYTRSFVAGLIGDRHFLVNGQPKKPGYRIKSSDTISGVIPAPA | -2.1
HMNGARALAGAIAEAIRKQVYRVNERLPAERELASHYDVSRGTLRSALALLEQEGLVTRKVGSGTFVMPP | -0.761
HMNGNLRAQVLELMGRADYEPLNKSELSRKLDLQGSDRSSLRILMDELERDHSVVRLKKGRFALKVV | -0.852
HMNGQFIELKNTTGTIIEARVLSFQNGKVKLQRNDGLIFVASISIFDSESIEVIKQKVAEISESKKS | -1.97
HMNGQITPSRAKEIALGHAGVSEGSANFKKIKLDNKNGRPAYEIEFIANNSRYEFEINASNGSIIKFNK | -0.321
HMNGYGALVRLGRSRGWVTVEEINDHLPESAVRTAENVQEITEALGRLSIKVFETRPDEDDLLIT | -0.458
HMNHGDATTETQAEIMAILSDMKPHPITELNTIKRPYEQIDTALTYLINEEKIYRMDGMIFIG | -1.38
HMNHYTEEYILKRMKDFFTTHAYITRRDIESLFGFRRSYATKWLKHFRESGVLKQSGPVNSAVYLL | -3.18
HMNIAESIRKYRKASGLTQEEMAKRLGVTTPAVSKWENGITNPDIALLAPIARLFHISVDTLLSYR | -1.83
